Test results: paper PMC4199108 (Nature Communications, 2014)
Residues, ends and D or L forms follow the SMILES beside them.

Legend:
[1] = target: T1, phosphorylated rhodopsin (Meta II) (Bos taurus, UniProt P02699); experiment: Extra Meta II assay: stabilization of Meta II by peptide, UV-visible absorption; type: binding, bovine; settings: 10 μM ROS-P, 100 mM HEPES pH 8.0, 0 °C, 380-nm absorbance
[2] = target: phosphorylated opsin (OpsP) (Bos taurus, UniProt P02699); type: binding, bovine; settings: 1 μM arrestin A366NBD + 2 μM OpsP, 50 mM HEPES pH 7.0, 22 °C
phosphorylated opsin (OpsP), sequence (P02699 whole entry): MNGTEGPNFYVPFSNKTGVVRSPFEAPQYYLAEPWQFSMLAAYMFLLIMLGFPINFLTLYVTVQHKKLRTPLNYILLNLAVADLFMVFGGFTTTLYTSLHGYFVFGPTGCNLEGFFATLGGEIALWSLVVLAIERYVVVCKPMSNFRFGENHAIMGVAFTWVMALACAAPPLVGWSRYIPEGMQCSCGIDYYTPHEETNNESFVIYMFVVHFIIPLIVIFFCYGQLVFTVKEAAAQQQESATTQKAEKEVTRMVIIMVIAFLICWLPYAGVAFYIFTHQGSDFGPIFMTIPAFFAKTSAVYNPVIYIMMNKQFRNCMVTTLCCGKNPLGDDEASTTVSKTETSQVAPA

[3] = target: phosphorylated opsin (OpsP) in membranes (bovine, UniProt P02699 1-348, phosphorylated by native rhodopsin kinase (sites not given)); experiment: co-sedimentation
phosphorylated opsin (OpsP) in membranes, sequence (P02699 whole entry): as above

[4] = target: T1, phosphorylated rhodopsin (Meta II); settings: 380-nm-absorbing Meta II; cited from earlier work

T1 sequence (P02699 whole entry): as above

Molecule | Kd [3] | also measured
CC[C@H](C)[C@H](NC(=O)[C@H](CC(=O)O)NC(=O)[C@H](CCC(=O)O)NC(=O)[C@H](CCC(N)=O)NC(=O)CNC(=O)[C@@H](N)Cc1ccc(O)cc1)C(=O)N[C@@H](CC(=O)O)C(=O)N[C@H](C(=O)N[C@@H](CCSC)C(=O)NCC(=O)N[C@@H](CC(C)C)C(=O)O)C(C)C [ArrFL-1] (H-YGQEDIDVMGL-OH) | – | Stabilization of Meta II / Extra Meta II formation (in words) [1]: stabilized the 380-nm-absorbing Meta II species over Meta I
QRMHLRQYELL [GsαCT] | – | Stabilization of Meta II / Extra Meta II formation (in words) [1]: did not stabilize Meta II; Competition for arrestin binding to phosphorylated opsin (in words) [2]: showed no competition for arrestin binding to phosphorylated opsin
YGREDLDVLGL [ArrFL-2/3, finger loop peptide of beta-arrestin-1 and beta-arrestin-2] | 2400 µM | –
arrestin: full-length rod photoreceptor arrestin (protein, NBD label on the single cysteine A366C) MKANKPAPNHVIFKKISRDKSVTIYLGKRDYIDHVERVEPVDGVVLVDPELVKGKRVYVSLTAAFRYGQEDIDVMGLSFRRDLYFSQVQVFPPVGASGATTRLQESLIKKLGANTYPFLLTFPDYLPSSVMLQPAPQDVGKSAGVDFEIKAFATHSTDVEEDKIPKKSSVRLLIRKVQHAPRDMGPQPRAEASFQFFMSDKPLRLAVSLSKEIYYHGEPIPVTVAVTNSTEKTVKKIKVLVEQVTNVVLYSSDYYIKTVAAEEAQEKVPPNSSLTKTLTLVPLLANNRERRGIALDGKIKHEDTNLASSTIIKEGIDKTVMGILVSYQIKVKLTVSGLLGELTSSEVATEVPFRLMHPQPEDPDTCKESFQDENFVFEEFARQNLKDAGEYKEEKTDQEAAMDE | – | Stabilization of Meta II species over Meta I [4]: stabilized the 380-nm-absorbing Meta II species over Meta I
YGQEDIDVMGL [ArrFL-1, peptide analogue of the finger loop of rod photoreceptor arrestin] | 1700 µM | –
IKENLKDCGLF [GtαCT, wild-type Gtα C-terminal peptide] | 880 µM | –
ILENLKDCGLF [GtαCT-HA, high-affinity version of the Gtα C-terminal peptide] | 320 µM | –
